# According to patent US20240325549A1 (HANGZHOU ZHONGMEIHUADONG PHARMACEUTICAL, published 2024):
# T1: human GIP receptor (human, UniProt P48546 22-466)
# T1 construct: whole, on cells; Functional assays: HEK293/GIPR cells and transiently transfected CHO-K1 cells; also called hGIPR
# T1 sequence (looked up): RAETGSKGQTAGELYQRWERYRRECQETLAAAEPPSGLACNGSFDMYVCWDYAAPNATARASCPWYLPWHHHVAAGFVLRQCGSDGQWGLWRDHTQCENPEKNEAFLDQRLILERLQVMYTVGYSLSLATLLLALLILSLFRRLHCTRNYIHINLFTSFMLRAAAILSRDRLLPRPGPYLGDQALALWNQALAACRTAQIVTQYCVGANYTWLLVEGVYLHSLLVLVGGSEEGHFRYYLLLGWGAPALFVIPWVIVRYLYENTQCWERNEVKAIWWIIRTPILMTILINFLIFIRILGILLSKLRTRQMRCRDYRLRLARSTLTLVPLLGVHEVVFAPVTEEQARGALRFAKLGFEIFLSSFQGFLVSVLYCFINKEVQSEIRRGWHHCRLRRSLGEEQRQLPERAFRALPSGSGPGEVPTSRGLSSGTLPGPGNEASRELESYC
# B1: P013 (peptide)
# peptide: YXEGTXTSDYXIXLDKQAQAEFVKWLLKGGPSSGAPPPSK
# modifications: Aib at 2, αMePhe at 6, Aib at 11, Aib at 13; K at position 24 conjugated at the ε-amino with ([2-(2-amino-ethoxy)-ethoxy]-acetyl)2-(γ-Glu)1-CO-(CH2)18-CO2H; C-terminal primary amide
# B2: P008 (peptide)
# peptide: B1 peptide
# modifications: Aib at 2, αMePhe at 6, Aib at 11, Aib at 13; K at position 28 conjugated at the ε-amino with ([2-(2-amino-ethoxy)-ethoxy]-acetyl)2-(γ-Glu)1-CO-(CH2)16-CO2H; C-terminal primary amide
# B3: P007 (peptide)
# peptide: B1 peptide
# modifications: Aib at 2, αMePhe at 6, Aib at 11, Aib at 13; K at position 24 conjugated at the ε-amino with ([2-(2-amino-ethoxy)-ethoxy]-acetyl)2-(γ-Glu)1-CO-(CH2)16-CO2H; C-terminal primary amide
# Target: T1, human GIP receptor
# Assay: radioligand competition: displacement of [125I]GIP from membranes of cells over-expressing human GIPR; ratio = Ki of GIP / Ki of compound
# Description: 98 μL of membrane dissolved in binding buffer (50 mM HEPES pH 7.4, 5 mM MgCl₂, 1 mM CaCl₂, 0.1% BSA, 0.005% Tween-20) is transferred to a 96-well test plate (15 μg/well). The compound is serially diluted in DMSO, and then, 2 μL of the diluted compounds or 100% DMSO is added to the test plate containing the membrane solution. […] The test plate is left at room temperature for 90 minutes. […] After drying at 37° C. for 2 hours, 50 μL of scintillation fluid is added to each well. The plate is read with a MicroBeta2 scintillation counter after sealing and settling for at least 1 hour so as to determine the membrane bound radioligand level.
row,Binder,Ki ratio
1,"YXEGTXTSDYXIXLDKQAQAEFVKWLLKGGPSSGAPPPSK (Aib at 2, αMePhe at 6, Aib at 11, Aib at 13; C-terminal primary amide) [P001]",8.82 ratio
2,B1,0.14 ratio
3,B2,0.16 ratio

# Target: T2, human GLP-1 receptor (human, UniProt P43220 24-463)
# T2 construct: whole, on cells; Functional assays: HEK293/CRE/GLP-1R cells, human GLP-1R-HEK cells and transiently transfected CHO-K1 cells; also called hGLP-1R
# Assay: radioligand competition: displacement of [125I]GLP-1 from membranes of cells over-expressing human GLP-1R; ratio = Ki of GLP-1 / Ki of compound
# Description: 89 μL of membrane dissolved in binding buffer (50 mM Hepes, pH 7.4, 5 mM MgCl₂, 5 mM EDTA, 0.005% TWEEN, 0.005% HSA) is transferred to a 96-well test plate (5 μg/well). The compound is serially diluted in DMSO, and then, 1 μL of the diluted compound or 100% DMSO is added to the test plate containing the membrane solution. 10 μL of [¹²⁵I] […] The test plate is left at room temperature for 90 minutes. The membrane complexes are harvested into a GF/B plate pre-coated with 0.5% PEI by using a Cell Harvester, and washed for 3 times with 500 μL of pre-cooled elution buffer (50 mM Hepes, pH 7.4, 500 mM NaCl) at 4° C. After drying at 37° C. for 2 hours, 50 μL of scintillation fluid is added to each well. The plate is read with a MicroBeta2 scintillation counter after sealing and settling for at least 1 hour so as to determine the membrane bound radioligand level.
row,Binder,Ki ratio
1,"YXEGTXTSDYXIXLDKQAQAEFVKWLLKGGPSSGAPPPSK (Aib at 2, αMePhe at 6, Aib at 11, Aib at 13; C-terminal primary amide) [P001]",19.5 ratio
2,B1,0.28 ratio
3,B2,1.09 ratio
4,B3,0.47 ratio

# Target: T1, human GIP receptor
# Assay: cell-based or functional assay
row,Binder,"EC50 value (ratio of the EC50 of the endogenous ligand GIP to the EC50 of the test compound), LANCE Ultra cAMP assay in HEK293/GIPR cells"
1,"YXEGTXTSDYXIXLDKQAQAEFVKWLLKGGPSSGAPPPSK (Aib at 2, αMePhe at 6, Aib at 11, Aib at 13; C-terminal primary amide) [P001]",7.13 ratio
2,B1,0.86 ratio
3,B2,1.67 ratio
4,B3,1.15 ratio

# Target: T2, human GLP-1 receptor
# Assay: cell-based or functional assay
row,Binder,"EC50 value (ratio of the EC50 of the endogenous ligand GLP-1 to the EC50 of the test compound), cAMP reporter gene (luciferase) assay in HEK293/CRE/GLP-1R cells"
1,"YXEGTXTSDYXIXLDKQAQAEFVKWLLKGGPSSGAPPPSK (Aib at 2, αMePhe at 6, Aib at 11, Aib at 13; C-terminal primary amide) [P001]",52.1 ratio
2,B1,2.41 ratio
3,B2,4.79 ratio
4,B3,5.84 ratio
